# Laboratory results from patent US20210292396A1 (INTERNATIONAL AIDS VACCINE INITIATIVE, published 2021).
# Assays:
# Assay in all cases: cell-based or functional assay
# [1] = target: HIV Env of isolate ZM53M.PB12 (HIV)
# [2] = target: HIV Env of isolate Du172.17 (HIV)
# [3] = target: HIV Env of isolate BF1266.431a (HIV)
# [4] = target: HIV Env of isolate SC05_8C11_2344 (HIV)
# [5] = target: HIV Env of isolate REJO4541.67 (HIV)
# [6] = target: HIV Env of isolate HIV-16055-2.3 (HIV)
# [7] = target: HIV Env of isolate 1006_11_C3_1601 (HIV)
# [8] = target: HIV Env of isolate 1056_10_TA11_1826 (HIV)
# [9] = target: HIV Env of isolate 6240_08_TA5_4622 (HIV)
# [10] = target: HIV Env of isolate Q23.17 (HIV)
# [11] = target: HIV Env of isolate A07412M1.vrc12 (HIV)
# [12] = target: HIV Env of isolate 89-F1_2_25 (HIV)
# HIV Env of isolate CNE20 = HIV Env of isolate CNE20 (HIV)
# [13] = target: HIV Env of isolate Du422.1 (HIV)
# [14] = target: HIV Env of isolate R3265.c06 (HIV)
# [15] = target: HIV Env of isolate ZM249M.PL1 (HIV)
# [16] = target: HIV Env of isolate BJOX010000.06.2 (HIV)
# [17] = target: HIV Env of isolate QH0692.42 (HIV)
# HIV Env of isolate CNE30 = HIV Env of isolate CNE30 (HIV)
# HIV Env of isolate CNE53 = HIV Env of isolate CNE53 (HIV)
# HIV Env of isolate PVO.4 = HIV Env of isolate PVO.4 (HIV)
# HIV Env of isolate CNE5 = HIV Env of isolate CNE5 (HIV)
# [18] = target: HIV Env of isolate ZM135M.PL10a (HIV)
# HIV Env of isolate CNE17 = HIV Env of isolate CNE17 (HIV)
# HIV Env of isolate CNE21 = HIV Env of isolate CNE21 (HIV)
# [19] = target: HIV Env of isolate X1254_c3 (HIV)
# [20] = target: HIV Env of isolate Ce0393_C3 (HIV)
# [21] = target: HIV Env of isolate P1981_C5_3 (HIV)
# HIV Env of isolate CNE58 = HIV Env of isolate CNE58 (HIV)
# [22] = target: HIV Env of isolate X2131_C1_B5 (HIV)
# [23] = target: HIV Env of isolate Q461.e2 (HIV)
# [24] = target: HIV Env of isolate T255-34 (HIV)
# [25] = target: HIV Env of isolate Ce2060_G9 (HIV)
# [26] = target: HIV Env of isolate WITO4160.33 (HIV)
# [27] = target: HIV Env of isolate C1080.c03 (HIV)
# [28] = target: HIV Env of isolate 6545.v4.c1 (HIV)
# [29] = target: HIV Env of isolate C3347.c11 (HIV)
# [30] = target: HIV Env of isolate ZM109F.PB4 (HIV)
# [31] = target: HIV Env of isolate 62357_14_D3_4589 (HIV)
# [32] = target: HIV Env of isolate TRO.11 (HIV)
# [33] = target: HIV Env of isolate T250-4 (HIV)
# [34] = target: HIV Env of isolate Du156.12 (HIV)
# [35] = target: HIV Env of isolate C4118.c09 (HIV)
# [36] = target: HIV Env of isolate CAP210.2.00.E8 (HIV)
# [37] = target: HIV Env of isolate ZM214M.PL15 (HIV)
binder,measurement,setting,value
"ePGT121.15.H1.L1 (antibody, V domains shown) VH: QMQLQESGPGLVKPGETLSLTCSVSGASISSSYWSWLRETPGKGLEWIGYTHHSGDTNYAPSLKSRVHLGLHPSKNQVSLSLTSVTAADTAVYYCARTLHGRRIYGVVAFNEWFTYFYWEVWGNGTQVTVSS VL: SDISVAPGETVRISCGGESIGSRAVQWYQHRAGQAPKLIIYNNQDRPPGIPERFSGSPDIDFGTTATLTITNVEAGDEATYYCHIWDSRRPTNWVFGGGTTLTVL",neutralization IC50,[1],0.6 ng/mL
same,neutralization IC50,[2],0.2 ng/mL
same,neutralization IC50,[3],> 50000 ng/mL
same,neutralization IC50,[4],0.9 ng/mL
same,neutralization IC50,[5],3170 ng/mL
same,neutralization IC50,[6],0.3 ng/mL
same,neutralization IC50,[7],0.3 ng/mL
same,neutralization IC50,[8],0.1 ng/mL
same,neutralization IC50,[9],2.2 ng/mL
same,neutralization IC50,[10],0.4 ng/mL
same,neutralization IC50,[11],2.2 ng/mL
same,neutralization IC50,[12],> 50000 ng/mL
same,neutralization IC50,HIV Env of isolate CNE20,0.3 ng/mL
same,neutralization IC50,[13],0.7 ng/mL
same,neutralization IC50,[14],> 50000 ng/mL
same,neutralization IC50,[15],2.4 ng/mL
same,neutralization IC50,[16],> 50000 ng/mL
same,neutralization IC50,[17],0.8 ng/mL
same,neutralization IC50,HIV Env of isolate CNE30,2.4 ng/mL
same,neutralization IC50,HIV Env of isolate CNE53,1 ng/mL
same,neutralization IC50,HIV Env of isolate PVO.4,0.4 ng/mL
same,neutralization IC50,HIV Env of isolate CNE5,15800 ng/mL
same,neutralization IC50,[18],132 ng/mL
same,neutralization IC50,HIV Env of isolate CNE17,3.7 ng/mL
same,neutralization IC50,HIV Env of isolate CNE21,0.1 ng/mL
same,neutralization IC50,[19],1.4 ng/mL
same,neutralization IC50,[20],> 50000 ng/mL
same,neutralization IC50,[21],1.4 ng/mL
same,neutralization IC50,HIV Env of isolate CNE58,2.5 ng/mL
same,neutralization IC50,[22],0.4 ng/mL
same,neutralization IC50,[23],> 50000 ng/mL
same,neutralization IC50,[24],22.1 ng/mL
same,neutralization IC50,[25],> 50000 ng/mL
same,neutralization IC50,[26],1.1 ng/mL
same,neutralization IC50,[27],> 50000 ng/mL
same,neutralization IC50,[28],> 50000 ng/mL
same,neutralization IC50,[29],> 50000 ng/mL
same,neutralization IC50,[30],10700 ng/mL
same,neutralization IC50,[31],4 ng/mL
same,neutralization IC50,[32],0.1 ng/mL
same,neutralization IC50,[33],0.2 ng/mL
same,neutralization IC50,[34],0.1 ng/mL
same,neutralization IC50,[35],> 50000 ng/mL
same,neutralization IC50,[36],5.2 ng/mL
same,neutralization IC50,[37],0.6 ng/mL
"PGT-121 (antibody, V domains shown) VH: QMQLQESGPGLVKPSETLSLTCSVSGASISDSYWSWIRRSPGKGLEWIGYVHKSGDTNYSPSLKSRVNLSLDTSKNQVSLSLVAATAADSGKYYCARTLHGRRIYGIVAFNEWFTYFYMDVWGNGTQVTVSS VL: SDISVAPGETARISCGEKSLGSRAVQWYQHRAGQAPSLIIYNNQDRPSGIPERFSGSPDSPFGTTATLTITSVEAGDEADYYCHIWDSRVPTKWVFGGGTTLTVLG",neutralization IC50,[1],1 ng/mL
same,neutralization IC50,[2],33 ng/mL
same,neutralization IC50,[3],> 50000 ng/mL
same,neutralization IC50,[4],19 ng/mL
same,neutralization IC50,[5],4770 ng/mL
same,neutralization IC50,[6],153 ng/mL
same,neutralization IC50,[7],2 ng/mL
same,neutralization IC50,[8],4 ng/mL
same,neutralization IC50,[9],33 ng/mL
same,neutralization IC50,[10],1 ng/mL
same,neutralization IC50,[11],9 ng/mL
same,neutralization IC50,[12],> 50000 ng/mL
same,neutralization IC50,HIV Env of isolate CNE20,1 ng/mL
same,neutralization IC50,[13],39 ng/mL
same,neutralization IC50,[14],> 50000 ng/mL
same,neutralization IC50,[15],> 50000 ng/mL
same,neutralization IC50,[16],> 50000 ng/mL
same,neutralization IC50,[17],302 ng/mL
same,neutralization IC50,HIV Env of isolate CNE30,> 50000 ng/mL
same,neutralization IC50,HIV Env of isolate CNE53,7 ng/mL
same,neutralization IC50,HIV Env of isolate PVO.4,98 ng/mL
same,neutralization IC50,HIV Env of isolate CNE5,> 50000 ng/mL
same,neutralization IC50,[18],716 ng/mL
same,neutralization IC50,HIV Env of isolate CNE17,7600 ng/mL
same,neutralization IC50,HIV Env of isolate CNE21,7 ng/mL
same,neutralization IC50,[19],14 ng/mL
same,neutralization IC50,[20],> 50000 ng/mL
same,neutralization IC50,[21],1 ng/mL
same,neutralization IC50,HIV Env of isolate CNE58,> 50000 ng/mL
same,neutralization IC50,[22],4 ng/mL
same,neutralization IC50,[23],> 50000 ng/mL
same,neutralization IC50,[24],18700 ng/mL
same,neutralization IC50,[25],> 50000 ng/mL
same,neutralization IC50,[26],334 ng/mL
same,neutralization IC50,[27],> 50000 ng/mL
same,neutralization IC50,[28],> 50000 ng/mL
same,neutralization IC50,[29],> 50000 ng/mL
same,neutralization IC50,[30],8640 ng/mL
same,neutralization IC50,[31],2600 ng/mL
same,neutralization IC50,[32],5 ng/mL
same,neutralization IC50,[33],1 ng/mL
same,neutralization IC50,[34],4 ng/mL
same,neutralization IC50,[35],> 50000 ng/mL
same,neutralization IC50,[36],26300 ng/mL
same,neutralization IC50,[37],460 ng/mL
